In patent US11306156:
Values belong to the substance of their own block, whether it stands above or below them.

Assays:
[1] = target: D3H44 light chain Q124E_Q160E_T180E (Kabat), N-terminal HA or FLAG tag; assay: LCCA co-expression, competing light chain m38, L1:L2 DNA 1:3 normalized to 1:1, SPR tag read-out
[2] = target: D3H44 light chain Q124E_T180E (Kabat), N-terminal HA or FLAG tag; assay: as above
[3] = target: D3H44 light chain Q124E_T178E (Kabat), N-terminal HA or FLAG tag; assay: as above
[4] = target: D3H44 light chain Q124R_Q160K_T178R (Kabat), N-terminal HA or FLAG tag; assay: LCCA co-expression, competing light chain m39, L1:L2 DNA 1:3 normalized to 1:1, SPR tag read-out
[5] = target: D3H44 light chain Q124R_Q160K_T178R (Kabat), N-terminal HA or FLAG tag; assay: LCCA co-expression, competing light chain m40, L1:L2 DNA 1:3 normalized to 1:1, SPR tag read-out
[6] = target: D3H44 light chain Q124R_Q160K_T178R (Kabat), N-terminal HA or FLAG tag; assay: LCCA co-expression, competing light chain m37, L1:L2 DNA 1:3 normalized to 1:1, SPR tag read-out
[7] = target: D3H44 Fab heavy chain L124R_D146N_Q179K (H1 of LCCA sets 9358, 9359, 9357, 9351, 9352, 9353, 9354, 9350); assay: LCCA: H1 co-expressed with L1 and L2 (DNA 333:250:749 ng), His-tag capture on SPR chip, light chain tags detected with anti-HA/anti-FLAG; competitor L1 Q124E_V133G_S176D_T178E_T180E
[8] = target: D3H44 Fab heavy chain L124R_D146N_Q179K (H1 of LCCA sets 9358, 9359, 9357, 9351, 9352, 9353, 9354, 9350); assay: LCCA: H1 co-expressed with L1 and L2 (DNA 333:250:749 ng), His-tag capture on SPR chip, light chain tags detected with anti-HA/anti-FLAG; competitor L1 V133G_S176D_T178E_T180E
[9] = target: tissue factor (TF) antigen (human (from the antibody's name 'anti-human tissue factor'; not stated for the antigen lot in the assay)) (UniProt P13726); assay: SPR (ProteOn XPR36): Fab captured via His tag on anti-penta His surface, TF injected, 1:1 fit; batch C (+)
[10] = target: tissue factor (TF) antigen (human (from the antibody's name 'anti-human tissue factor'; not stated for the antigen lot in the assay)) (UniProt P13726); assay: SPR (ProteOn XPR36), Fab captured on anti-penta His, TF analyte; against wild-type D3H44 Fab; batch C by the KD cell's +
[11] = target: tissue factor (TF) antigen (UniProt P13726); assay: SPR (ProteOn XPR36), Fab captured on anti-penta-His surface, TF as analyte, 1:1 fit; estimated value from a Fab differing only in the L chain tag (HA or FLAG)
[12] = target: tissue factor (TF) antigen (UniProt P13726); assay: SPR (ProteOn XPR36), Fab captured on anti-penta-His surface, TF as analyte; reference wild-type D3H44 Fab; estimated value from a Fab differing only in the L chain tag
[13] = target: D3H44 light chain F116A_L135V (Kabat), N-terminal HA or FLAG tag; assay: LCCA co-expression, competing light chain m33, L1:L2 DNA 1:9 normalized to 1:1, SPR tag read-out
[14] = target: D3H44 light chain F116A_L135V (Kabat), N-terminal HA or FLAG tag; assay: LCCA co-expression, competing light chain m33, L1:L2 DNA 1:3 normalized to 1:1, SPR tag read-out
[15] = target: D3H44 light chain S131T_L135F_S176F_T178F (Kabat), N-terminal HA or FLAG tag; assay: LCCA co-expression, competing light chain m34, L1:L2 DNA 1:9 normalized to 1:1, SPR tag read-out
[16] = target: D3H44 light chain S131T_L135F_S176F_T178F (Kabat), N-terminal HA or FLAG tag; assay: LCCA co-expression, competing light chain m34, L1:L2 DNA 1:3 normalized to 1:1, SPR tag read-out
[17] = target: tissue factor (TF) (human) (UniProt P13726); assay: SPR (ProteOn), Fab captured on anti-penta His, TF analyte, 1:1 fit; estimated from Fab differing only in L chain tag
[18] = target: tissue factor (TF) antigen (UniProt P13726); assay: SPR (ProteOn XPR36), Fab captured on anti-penta-His surface, TF as analyte, 1:1 fit; batch C (stored about 2 months at 4 C)
[19] = target: tissue factor (TF) antigen (UniProt P13726); assay: SPR (ProteOn XPR36), Fab captured on anti-penta-His surface, TF as analyte; reference wild-type D3H44 Fab; batch C

Substance: D3H44 Fab heterodimer, H1 Q39R_Q179K / L1 Q38E_Q124E_Q160E_T180E (H1L1 Fab of LCCA set 9827)
Kd [9]: 0.17 nM
Change in median values of KD of h1l1 Fab heterodimer compared to wild type (-(log(KD design)-log(KD wt))) [10]: -0.03

Substance: D3H44 Fab heterodimer H1 L143D_K145T_Q179E / L1 T178R
Kd [11]: 0.28 nM
Change in median values of KD of h1l1 Fab heterodimer compared to wild type (-(log(KD design)-log(KD wt))) [12]: -0.25

Substance: D3H44 Fab heavy chain A139G_F174V_V190A (Kabat), C-terminal ABD2-His6 tag
H1L1:H1L2 normalized median ratio [13]: 40 of 100
H1L1:H1L2 normalized median ratio [14]: 49 of 100
H1L1:H1L2 normalized median ratio [15]: 60 of 100
H1L1:H1L2 normalized median scalar value ln(r1/f1) [15]: 0.42
H1L1:H1L2 normalized median ratio [16]: 51 of 100
H1L1:H1L2 normalized median scalar value ln(r1/f1) [16]: 0.03

Substance: H1L1 Fab heterodimer of LCCA set 9585 (D3H44 Fab; H: L143E_K145T; L: Q124R)
Kd [17]: 0.28 nM
change in KD vs wild type, -(log(KD design)-log(KD wt)) [17]: -0.25

Substance: D3H44 Fab heterodimer H1 L143E_K145T_Q179D / L1 T178R
Kd [11]: 0.11 nM
Change in median values of KD of h1l1 Fab heterodimer compared to wild type (-(log(KD design)-log(KD wt))) [12]: 0.17
Kd [18]: 0.11 nM
Change in median values of KD of h1l1 Fab heterodimer compared to wild type (-(log(KD design)-log(KD wt))) [19]: 0.17

Continued, values first:

H1L1:H1L2 normalized median ratio [1]: 28 of 100
H1L1:H1L2 normalized median ratio [2]: 41 of 100
H1L1:H1L2 normalized median ratio [3]: 41 of 100
H1L1:H1L2 normalized median ratio [4]: 72 of 100
H1L1:H1L2 normalized median scalar value ln(r1/f1) [4]: 0.96
H1L1:H1L2 normalized median ratio [5]: 59 of 100
H1L1:H1L2 normalized median scalar value ln(r1/f1) [5]: 0.36
H1L1:H1L2 normalized median ratio [6]: 59 of 100
H1L1:H1L2 normalized median scalar value ln(r1/f1) [6]: 0.38
Substance: D3H44 Fab heavy chain L143E_K145T (Kabat), C-terminal ABD2-His6 tag

median LCCA performance normalized to a L1:L2 DNA ratio of 1:1 (ratio H1-L1:H1-L2), H1-L2 share (ratio part of 100) [7]: 18
median LCCA performance normalized to a L1:L2 DNA ratio of 1:1 (ratio H1-L1:H1-L2), H1-L2 share (ratio part of 100) [8]: 26
Substance: D3H44 light chain Q124K_V133G_Q160K_S176R
